Results on 14 molecules are retold here after patent publication US20250236644A1 (University of Washington, published 2025).

Positions count from the first letter of the chain named.

Test [1] deals with T1, TAMRA-labeled effector peptide cs094B (5(6)-TAMRA label coupled on resin after synthesis).
T1 construct: also called TAMRA-cs094B
T1 peptide: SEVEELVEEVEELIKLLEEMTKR
The test can be described thus: fluorescence polarization kinetics; slope of kapp against hinge concentration. As to the method: (§1) All FP measurements were performed at 25° C. in 96-well plates (Corning 3686) using a Synergy Neo2™ plate reader and a 530/590 nm filter cube. The buffer for all FP measurements was 20 mM Tris-HCl, 100 mM NaCl, 0.05% v/v TWEEN20 at pH 8. Titrations were carried out in 96-well format, with 4 replicates per plate and 24 data points per titration (23 steps of two-fold serial dilution of hinges in the presence of TAMRA-labeled peptide at a constant concentration between 0.1 nM and 1 nM) with a final sample volume of 80 μl per well. Titration plates were incubated overnight at room temperature before measuring to ensure complete equilibration. The polarization signal S (as calculated by the Neo2™ software) was fitted to the equation
(§2) For FP kinetics experiments a 2× peptide solution and 8 different 2× hinge solutions at different concentrations were prepared separately. 40 μl of each hinge solution were mixed with 40 μl peptide solution using a multichannel pipet and the measurement was started immediately after mixing. Polarization signals S at each concentration were fitted individually to the equation
In general terms: Polarisation of emitted light reports the rotation of a fluorescent probe.

Test [2] deals with T1, TAMRA-labeled effector peptide cs094B. The experiment in a line: fluorescence polarization titration; TAMRA-peptide constant, hinge varied.
Source text: (§3) We used our hinge design approach to generate hinge-peptide pairs that span a wide structural space (FIGS. 1D, 2A, 6, 7). We experimentally tested multiple rounds of designs, using both DHRs (21) and helical junctions (22) as input scaffolds, and improving individual steps of the design pipeline between iterations. Designs for which hinge and GFP-fused peptide were soluble and interacted as judged by size exclusion chromatography (SEC, FIGS. 7-8) were selected for further characterization by fluorescence polarization (FP). […] To circumvent the bottleneck of finding soluble peptide sequences, we also sought to design hinges that bind to a given target peptide. Starting from design cs201, we used a modified version of our design pipeline to redesign the hinge to bind peptides cs074B or cs221B, respectively, which have similar hydrophobic fingerprints as the original target peptide cs201B.
as §1

Test [3] addresses T2, TAMRA-labeled effector peptide cs221B (5(6)-TAMRA label coupled on resin after synthesis).
T2 construct: also called TAMRA-cs221B
T2 peptide: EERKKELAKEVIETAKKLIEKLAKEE
The experiment in a line: FP titration, 1 nM peptide, hinge varied. As to the method:
(§4) FIG. 10. Redesign of hinges to bind other target peptides. An experimentally tested hinge (top, cs201) is redesigned using a one-sided two-state design approach to bind to different target peptides. Hinges csw13 and csw20 are designed to bind to peptides cs221B and cs074B, respectively, while having a backbone conformation that is similar to the parent cs201 that binds cs201B. Left: design models, right: FP titrations using 1 nM peptide (cs201B, cs221B, cs074B, js007B) and varying concentrations of hinge (from top to bottom: cs201, csw13, csw20). csw13 is an example of a successful orthogonal redesign that specifically binds the new target peptide cs221B while not binding the parent target peptide cs201B or the off-target peptides cs074B or js007B. csw20 is a less orthogonal example that binds the new target peptide cs074B most strongly but still binds to the parent-target peptide cs201B and to the off-target peptide cs221B albeit weaker than the new target.
as §1

Test [4] addresses T3, TAMRA-labeled effector peptide cs201B (5(6)-TAMRA label coupled on resin after synthesis).
T3 construct: also called TAMRA-cs201B
T3 peptide: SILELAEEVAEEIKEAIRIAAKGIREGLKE
The experiment in a line: FP titration, 1 nM peptide, hinge varied. As to the method:
as §4, §1

The target in test [5] is T4, TAMRA-labeled effector peptide cs074B (5(6)-TAMRA label coupled on resin after synthesis).
T4 construct: Chemically synthesized; also called TAMRA-cs074B
T4 peptide: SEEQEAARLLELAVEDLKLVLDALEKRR
The test can be described thus: FP titration, 1 nM peptide, hinge varied. As to the method: as §4, §1

Test [6] has as its target T5, TAMRA-labeled effector peptide cs207B (5(6)-TAMRA label coupled on resin after synthesis).
T5 construct: also called TAMRA-cs207B
T5 peptide: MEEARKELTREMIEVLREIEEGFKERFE
The experiment in a line: fluorescence polarization titration; TAMRA-peptide constant, hinge varied.
Source text: as §3, §1

In test [7] the target is T2, TAMRA-labeled effector peptide cs221B. The test can be described thus: fluorescence polarization titration; 1 nM TAMRA-peptide, unlabeled hinge varied. As to the method: as §1
The target is the same in test [8]. The experiment in a line: fluorescence polarization kinetics; slope of kapp against hinge concentration. As to the method: as §1, §2
Test [9] has the same target. The experiment in a line: fluorescence polarization titration; TAMRA-peptide constant, hinge varied.
Source text: as §3, §1

For test [10] the target is unchanged. The test can be described thus: fluorescence polarization kinetics.
Source text: To test the effect of the conformational pre-equilibrium on effector binding, we introduced disulfide “staples” that lock the hinge in one conformation. Using FP we analyzed peptide binding to stapled versions of hinge cs221 (FIG. 5A,B). […] Using the pre-equilibrium model described above, the observed association rates provide an estimate of the fraction of hinge that is in state Y in absence of the peptide: a 200-fold higher observed on rate for the locked Y variant indicates a 200-fold higher fraction of hinge in state Y compared to the original hinge. Assuming that the locked Y variant is 100% in state Y and assuming that the microscopic rate constant k₂ is identical for the locked Y hinge and state Y of the original hinge, this would indicate that the original hinge is 99.5% in state X and 0.5% in state Y at equilibrium.
as §2

Test [11] addresses T6, TAMRA-labeled effector peptide cs217B (5(6)-TAMRA label coupled on resin after synthesis).
T6 construct: also called TAMRA-cs217B
T6 peptide: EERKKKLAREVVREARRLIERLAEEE
The test can be described thus: fluorescence polarization titration; signal never reached a plateau, only a lower bound can be estimated. As to the method:
as §1

Test [12] deals with T7, TAMRA-labeled effector peptide js007B (5(6)-TAMRA label coupled on resin after synthesis).
T7 construct: also called TAMRA-js007B
T7 peptide: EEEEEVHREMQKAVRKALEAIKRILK
The experiment in a line: fluorescence polarization kinetics; slope of kapp against hinge concentration. As to the method: as §1, §2

Test [13] addresses T7, TAMRA-labeled effector peptide js007B. The experiment in a line: fluorescence polarization titration; TAMRA-peptide constant, hinge varied.
Source text: as §3, §1

For test [14], the target named is T3, TAMRA-labeled effector peptide cs201B. The experiment in a line: fluorescence polarization kinetics; slope of kapp against hinge concentration. As to the method: as §1, §2
Test [15] shares this target. The test can be described thus: fluorescence polarization titration; TAMRA-peptide constant, hinge varied.
Source text: as §3, §1

B1: hinge cs094 (designed binder)
chain: MSGDEEERLRQEVEKAEKELEKLAKQSTDEEVRKMVREVAKQLRRLAEEAIRQKDDEALRQATEVVKMVQEAVKVAQKTTDQKVILLLLAVALVAIKVAQLAIRSDDTEALRLARIVIRAVQLLVKLVQKTTDPEVRRTALRVAELLAKLAKEAIERNDEEALREASEVVKEVQELVKEAEKSTDEEEIRELLQRAEERIREAQERIREGSGSHHWGSTHHHHHH
Broadly, the kon is the second-order rate constant of association. The term Kd denotes the equilibrium constant for the complex coming apart. With B1, the kon in test [1] is 9400 M⁻¹ s⁻¹. Moreover, in [2], the Kd worked out at 830 nM.

B2: swapped target hinge csw20 (designed binder)
chain: MSGMEEVKELVEKAEELAKEAEELIKKAKKTGNPELLKEALRKLKEAVELAKEAVELDPEHEEAIELLARLAEKLLEVAKLLIELAKKTGNPELLKEALRALKEAREALRLAAEHAPEDAKLLARLAARLAELALLIAKILIELAKKTGNPELLLKALKVLTLAVEAVEAALEADPRLKEAVRVAKELAEVLKELAKLAKELAKKTGNEELKEAAKEAEEVAKRAEELAREAEGSGSHHWGSTHHHHHH
With B2, the binding result in test [3], in test [4] and in [5] was “binds” in each case.

B3: hinge cs207 (designed binder)
chain: MSGTEDERRELEKVARKAIEAAREGNTDEVREQLQRALEIARESGSEEAFKLALEVVRRVAEVAARAGNVEAVKEALRVALEIVKEAMELIKDPEAIVRLALEAVRVVAEVAARAGAVEAVKVALRVALEIAKIAGTEEAVRLALEVVKRVSDIAKKAGNEDAVKEAEEVRKKIEEESGGSGSHHWGSTHHHHHH
notes: also called cs207A
Regarding B3, in test [6], the Kd was 820 nM.

B4: FRET(extension) cs221F, unlabeled (designed binder)
chain: MSGEMVEEIEKLAEELAKKTKDCEVKKLAKKAAELAKKSTDEMKKEIVKDALELALRTKDEEVIRLALKAAVLAAESDDEEVKEVVKKALEAALKSKDEEVIRLLLLAAVLAAAAARSGSPEEKLEIAKKALELAMKSKDEEVIRLALLAAVLAARSDDEEVLKIVKKALELAMESKDVEVIRLALEAAVLAARSTDPEKKKCVYEALEKAMESKDEEEIKKELKAAVEKARSTEGSGSHHWGSTHHHHHH
notes: also called unlabeled extended hinge cs221F
For the molecule B4, in test [7], the Kd was 23 nM.

B5: hinge cs221 (designed binder)
chain: MSGEMKEEIRRLAEELRERTKDEEVRELAREAARLAEESDDEEVKEVVKKALEAALKSKDEEVIRLLLLAAVLAAAAARSGSPEEKLEIAKKALELAMKSKDEEVIRLALLAAVLAARSDDEEVLKKVKEALEKAMESKDVEEIRERLREAVEVARAGSGSHHWGSTHHHHHH
notes: also called original cs221; parent hinge without cysteines
Consider B5, for which the kon in test [8] amounted to 3400 M⁻¹ s⁻¹. Moreover, in test [9], the Kd was found to be 2 nM.

B6: variant cs221_lockedY (designed binder)
chain: B5 chain with L69C, L110C
modifications: disulfide bond between the two introduced cysteines (locks the hinge in state Y; oxidized with copper phenanthroline)
notes: also called cs221 locked Y hinge variant
On to B6, for which the kon in [8] was 790000 M⁻¹ s⁻¹. In addition, the Kd in test [9] was found to be 12 nM. Further, the “fold higher association rate than the original hinge cs221” value in [10] is 200 fold.

B7: cs221_V111L (designed binder)
chain: B5 chain with V114L
notes: Point mutant of hinge cs221
As for B7, in test [8], the kon stood at 24300 M⁻¹ s⁻¹. In addition, the Kd in [9] is 0.3 nM.

B8: cs221_L66T (designed binder)
chain: B5 chain with L69T
notes: Point mutant of hinge cs221
Consider B8, for which the kon in test [8] stood at 2700 M⁻¹ s⁻¹. In [9], the Kd turned out to be 38.3 nM.

B9: cs221_V111L_A114T (designed binder)
chain: B5 chain with V114L, A117T
notes: Double mutant of hinge cs221; also called cs221-mut
Take B9: the kon in test [8] was determined as 76200 M⁻¹ s⁻¹. Moreover, the Kd in test [9] was found to be 0.1 nM. Also, the “fold higher on rate than the original cs221” value in test [10] was 22 fold.

B10: cs221_A114T (designed binder)
chain: B5 chain with A117T
notes: Point mutant of hinge cs221
For B10, in test [8], the kon worked out at 27700 M⁻¹ s⁻¹. Moreover, the Kd in test [9] amounted to 0.2 nM.

B11: cs221_A73E (designed binder)
chain: B5 chain with A76E
notes: Point mutant of hinge cs221
B11: in [8], the kon worked out at 1900 M⁻¹ s⁻¹. Besides, in [9], the Kd amounted to 4.9 nM.

B12: hinge cs217 (designed binder)
chain: MSGEMKEEIRRLAEELEKKTKDEEVKELARKAAELAEKSDNEEVLEVVKEALRAALKSKDEEVRRLLLEAAVLAAAAESSGSPEEKLEVALRAIRLAEKSKDEEVRRLALEAAVLAAESDDEEVLEEVLRALRRAEESKDEEERREELREAVRRAREGSGSHHWGSTHHHHHH
Turning to B12, in test [11], the Kd is 20000 nM.

B13: hinge js007 (designed binder)
chain: MSGSEEVNERVKQLAEKAKEATDKEEVIEIVKELAELAKQSTDPNLVAEVVRALTEVAKTSTDTELIQEIVKVLLELARRLTDPQLLLEVLKSIAELLKELAEKTGNETAKLAALVAQIAAEVVEMALRAEKTHPGSEIVKLAVELVQKVAEIVLIAAQLMLDKPNSDEVRKVLKEVEKVAREALKALREAKRHPDSQKARDEIKEASQKAEEVKERIERAQEGSGSHHWGSTHHHHHH
Consider B13, for which, in [12], the kon stood at 78000 M⁻¹ s⁻¹. Moreover, in test [13], the Kd came out at 5.7 nM.

B14: hinge cs201 (designed binder)
chain: MSGDEEVQEAVERAEELREEAEELIKKARKTGDPELLRKALEALKEAVRAVREAIKRNPDNEEAIKTALRLARELRKVAKELIERARKTGDAELLKKALEAARVAVEAVRLAAEYNKENAEKMAELLVELAELAREVADVLIELAEKTGDPELLKKALEVLEEAVEAVRLAIEYDPDHEEAVETAKRLAEELRKVAELLEERAKETGDPELQELAKRAKEVADRARELAKKSNGSGSHHWGSTHHHHHH
notes: also called unlabeled hinge cs201
For B14, the kon in test [14] worked out at 6700 M⁻¹ s⁻¹. The Kd in [15] worked out at 22 nM.
